# Laboratory results taken from patent US20260226161A1 (EXELIXIS, published 2026).
# Columns and labels:
# [1] = target: T1, NKG2A expressed on KHYG-1 cells (endogenous) (human, UniProt P26715 1-233; Q13241 1-179); experiment: flow cytometry on KHYG-1 cells expressing endogenous NKG2A
# T1 construct: whole, on cells; Surface NKG2A copy number of approximately 10-20K; also called KHYG-1 cells expressing endogenous NKG2A; NKG2A-expressing cells
# Procedure: (§1) Cells were collected by centrifugation at 400×g for 7 minutes and primary antibody was removed. 50 μL per well of AF488 goat anti human IgG Fab (Jackson Immuno Research 109-547-003) at 1:100 dilution was added. Plates were placed at 4° C. for 30 minutes.
# (§2) Cells were collected by centrifugation at 400×g for 7 minutes and secondary antibody was removed. Cells were resuspended in 50 μL per well of PBS and analyzed by flow cytometry. Binding curves were calculated using the mean fluorescence intensity (MFI) of the FITC fluorescence signal on the cells. Bispecific antibody binding was evaluated in KHYG-1 cells expressing endogenous NKG2A and in MC/CAR cells expressing PD-L1. Cells were harvested and assayed for binding as described above.
# PD-L1 expressed on cells [2] = target: T2, PD-L1 expressed on cells (UniProt Q9NZQ7 19-290, limits assumed); experiment: flow cytometry on MC/CAR cells expressing PD-L1
# T2 construct: whole, on cells; also called MC/CAR cells expressing PD-L1; PD-L1+MDA-MB-231 cells
# T2 sequence (Q9NZQ7 19-290 limits assumed): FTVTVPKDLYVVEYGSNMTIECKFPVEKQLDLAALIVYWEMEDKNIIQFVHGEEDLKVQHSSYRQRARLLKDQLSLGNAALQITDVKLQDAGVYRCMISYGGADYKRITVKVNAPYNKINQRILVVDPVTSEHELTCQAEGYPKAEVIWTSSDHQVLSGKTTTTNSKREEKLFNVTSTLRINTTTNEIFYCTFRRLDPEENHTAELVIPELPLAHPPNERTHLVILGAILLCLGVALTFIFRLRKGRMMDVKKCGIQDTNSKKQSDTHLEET
# Procedure: as §1, §2
# PD-L1 expressed on cells [3] = target: T2, PD-L1 expressed on cells; experiment: cell-based or functional assay
# T1 sequence (P26715 whole entry, chain 1 of 2): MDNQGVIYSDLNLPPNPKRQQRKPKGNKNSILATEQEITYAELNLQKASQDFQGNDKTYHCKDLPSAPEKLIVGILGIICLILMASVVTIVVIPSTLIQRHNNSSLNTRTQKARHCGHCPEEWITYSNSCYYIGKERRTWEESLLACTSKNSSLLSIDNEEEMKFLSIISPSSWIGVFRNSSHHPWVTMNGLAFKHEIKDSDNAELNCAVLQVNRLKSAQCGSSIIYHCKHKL
# T1 sequence (Q13241 whole entry, chain 2 of 2): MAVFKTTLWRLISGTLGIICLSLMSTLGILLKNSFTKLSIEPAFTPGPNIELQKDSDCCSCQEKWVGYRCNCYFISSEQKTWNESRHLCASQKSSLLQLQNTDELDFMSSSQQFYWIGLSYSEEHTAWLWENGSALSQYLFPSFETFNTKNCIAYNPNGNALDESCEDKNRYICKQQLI
binder,measurement,setting,value
"P12P12 × A11 (2 × 1 format) (bispecific antibody, Two PD-L1 sites, one NKG2A site; also called P12P12 × A11 sFc) heavy 1: DIQMTQSPSSLSASVGDRVTITCRASQSVSSAVAWYQQKPGKAPKLLIYSASSLYSGVPSRFSGSRSGTDFTLTISSLQPEDFATYYCQQFMLEPITFGQGTKVEIKGQPREPQVCTLPPSRDELTKNQVSLTCLVRGFYPSDIAVEWESNGQPENNYKTTPPVLDSDGSFFLYSKLTVDKSRWQQGNVFSCSVMHEALHNHYTQKSLSLSPGKTASSGGSSSGDIQMTQSPSSLSASVGDRVTITCRASQSVSSAVAWYQQKPGKAPKLLIYSASSLYSGVPSRFSGSRSGTDFTLTISSLQPEDFATYYCQQFMLEPITFGQGTKVEIKGQPREPQVCTLPPSRDELTKNQVSLTCLVRGFYPSDIAVEWESNGQPENNYKTTPPVLDSDGSFFLYSKLTVDKSRWQQGNVFSCSVMHEALHNHYTQKSLSLSPGKDKTHTCPPCPAPEAAGGPSVFLFPPKPKDTLMISRTPEVTCVVVDVSHEDPEVKFNWYVDGVEVHNAKTKPREEQYNSTYRVVSVLTVLHQDWLNGKEYKCKVSNKALKAPIEKTISKAKGQPREPQVYTLPPSREEMTKNQVSLSCAVKGFYPSDIAVEWESNGQPENNYKTTPPVLDSDGSFFLVSKLTVDKSRWQQGNVFSCSVMHEALHNHYTQKSLSLSPGK light 1: EVQLVESGGGLVQPGGSLRLSCAASGFTFSSYYIHWVRQAPGKGLEWVATINSRGGFTLYADSVKGRFTISADTSKNTAYLQMNSLRAEDTAVYYCARGYTLTPVLDYWGQGTLVTVSSAQPREPQVYTLPPCRDWLTKNQVSLTCLVKGFYPSDIAVEWESNGQPENNYKTTPPVLDSDGSFFLYSKLTVDKSRWQQGNVFSCSVMHEALHNHYTQKSLSLSPGK heavy 2: not shown light 2: EVQLVESGGGLVQPGGSLRLSCAASGFTFSWYYIHWVRQAPGKGLEWVAVIDPISSYTYYADSVKGRFTISADTSKNTAYLQMNSLRAEDTAVYYCARGFDRAMDYWGQGTLVTVSSASTKGPSVFPLAPSSKSTSGGTAALGCLVKDYFPEPVTVSWNSGALTSGVHTFPAVLQSSGLYSLSSVVTVPSSSLGTQTYICNVNHKPSNTKVDKKVEPKSC",EC50,[1],1.99 nM
same,EC50,PD-L1 expressed on cells [2],3.23 nM
same,"IC50 of inhibiting PD-1/PD-L1 interaction in PD-L1+MDA-MB-231 cells (PD-1/PD-L1 Signaling Bioassay, chemiluminescent signal)",PD-L1 expressed on cells [3],0.405 nM
